Data published in patent US20230242902A1, “A HIGHLY ERROR-PRONE […] R[…] FOR TARGETED CONTINUOUS EVOLUTION IN VIVO” (The Regents of the University of California, priority 2017, published 2023).

B1: R677M: TP-DNAP1 variant (protein)
chain: MDYKDKALNDLRNVYADFDSLPLDFRQILIKDRATLLQKEDVEKKILERQEDAKKYAEYLKQSEIPERISLPNIKRHKGVSISFEETSEDMVLEPRPFIFDGLNIRCFRRETIFSLKNKILNMVKESSSFKNVSRQSVSFMYFKIFNKGKVIASTKSVNIYEDKIDERLEDLCNNFDDVLKKIIDVTYGYESLFVSETYSYVIFYAKSIYFPQPRCVNNWGNNIPNILTFDSFKLFTANKNNVSCIKQCSRFLWQKDFNTLEEMIEYKNGNICIVTPQLHINDVRDIKSFNDIRLYSESPIKTFSVIDNTITYLFYFKEHLGVIFNITKSRHDRRVTKFSPLSKFSDVKNITVCFDIESYFDPEKESNQVNIPFICCASIIYNKVIGNIVDFEGRDCVAQMIEYVVDICGELNISSVELIAHNGGGYDFHYILSSMYNPAAIKNILIRNNSFISFNFAHDGVKFSVKDSYSFLLCSLANASKAFLNEETFKKTDFPHHDLKTADDLYKVYKEWSSVNTEINHVVEKEKLLITSEHIVNFTKNDKSKTLIEWSKDYCRNDVLVLSKVWLEFKNAVEDIFNCELVDQTMTLAGLSYKLFQANMPFDVELRHPNKEDYFNMREALIGGRCISVNGIYKDVLCLDVKSLYPASMAFYDQPYGSFKRVSSRPKDELGIYYVMVTPNRNNKSNFFPIRSHNKITYNNFEESTYIAWYTNVDIDIGLSEGHNIEYIPFDSYGNIGYSWSKKGKIFEKYIKDVLYKLKIKYEKQNNKVKRNVIKIIMNSLWGKFAQKWVNFEYFIKSEDDIDFESEEAYKIWDTDFMLIKKIKESTYSSKPIQNGVFTLSWARYHMKSIWDAGAKEGAECIYSDTDSIFVHKEHFKKNAKFMLNGLKVPIIGSEVGQLELECEFDKLLCAGKKQYMGFYTYFQDGKPCIKEKKRFKGIPSNYIIPELYAHLLSGADKEAKIQFLKFRREWGSVKGYIENKTVKAT
B2: R677S: TP-DNAP1 variant (protein)
chain: MDYKDKALNDLRNVYADFDSLPLDFRQILIKDRATLLQKEDVEKKILERQEDAKKYAEYLKQSEIPERISLPNIKRHKGVSISFEETSEDMVLEPRPFIFDGLNIRCFRRETIFSLKNKILNMVKESSSFKNVSRQSVSFMYFKIFNKGKVIASTKSVNIYEDKIDERLEDLCNNFDDVLKKIIDVTYGYESLFVSETYSYVIFYAKSIYFPQPRCVNNWGNNIPNILTFDSFKLFTANKNNVSCIKQCSRFLWQKDFNTLEEMIEYKNGNICIVTPQLHINDVRDIKSFNDIRLYSESPIKTFSVIDNTITYLFYFKEHLGVIFNITKSRHDRRVTKFSPLSKFSDVKNITVCFDIESYFDPEKESNQVNIPFICCASIIYNKVIGNIVDFEGRDCVAQMIEYVVDICGELNISSVELIAHNGGGYDFHYILSSMYNPAAIKNILIRNNSFISFNFAHDGVKFSVKDSYSFLLCSLANASKAFLNEETFKKTDFPHHDLKTADDLYKVYKEWSSVNTEINHVVEKEKLLITSEHIVNFTKNDKSKTLIEWSKDYCRNDVLVLSKVWLEFKNAVEDIFNCELVDQTMTLAGLSYKLFQANMPFDVELRHPNKEDYFNMREALIGGRCISVNGIYKDVLCLDVKSLYPASMAFYDQPYGSFKRVSSRPKDELGIYYVSVTPNRNNKSNFFPIRSHNKITYNNFEESTYIAWYTNVDIDIGLSEGHNIEYIPFDSYGNIGYSWSKKGKIFEKYIKDVLYKLKIKYEKQNNKVKRNVIKIIMNSLWGKFAQKWVNFEYFIKSEDDIDFESEEAYKIWDTDFMLIKKIKESTYSSKPIQNGVFTLSWARYHMKSIWDAGAKEGAECIYSDTDSIFVHKEHFKKNAKFMLNGLKVPIIGSEVGQLELECEFDKLLCAGKKQYMGFYTYFQDGKPCIKEKKRFKGIPSNYIIPELYAHLLSGADKEAKIQFLKFRREWGSVKGYIENKTVKAT

Test system: p1
Experiment: p1 copy number by p1-encoded mKate2 fluorescence
Format: cell-based, S. cerevisiae
Settings: OR-Y24, measured in triplicate
Outline: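 Read-out is mKate2 fluorescence of saturated OR-Y24 cultures, measured by flow cytometry or by plate reader with OD600 normalization. Flow values were converted by a qPCR-derived linear calibration; plate values were scaled to a w.t. TP-DNAP1 control.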

Molecule	Mean fold-increase over w.t. (p1 copy number)
B1	1.97 fold
B2	1.87 fold
